According to publication doi:10.1101/422709 (bioRxiv, 2019):

Molecular target: the molecule itself
Test: crystal structure

Protein | stoichiometry N
phosphoribulokinase from Chlamydomonas reinhardtii (enzyme, UniProt P19824 32-375, looked up) DKDKTVVIGLAADSGCGKSTFMRRMTSIFGGVPKPPAGGNPDSNTLISDMTTVICLDDYHCLDRNGRKVKGVTALAPEAQNFDLMYNQVKALKEGKSVDKPIYNHVSGLIDAPEKIESPPILVIEGLHPFYDKRVAELLDFKIYLDISDDIKFAWKIQRDMAERGHSLESIKSSIAARKPDFDAYIDPQKKDADMIIQVLPTQLVPDDKGQYLRVRLIMKEGSKMFDPVYLFDEGSTISWIPCGRKLTCSFPGIKMFYGPDTWYGQEVSVLEMDGQFDKLEELIYVESHLSNTSAKFYGEITQQMLKNSGFPGSNNGTGLFQTIVGLKVREVYERIVKKDVVPV | 2
phosphoribulokinase from Arabidopsis thaliana (enzyme, UniProt P25697 47-395, looked up) AQETIVIGLAADSGCGKSTFMRRLTSVFGGAAKPPKGGNPDSNTLISDTTTVICLDDYHSLDRYGRKEQKVTALDPRANDFDLMYEQVKALKNGIAVEKPIYNHVTGLLDPPELIQPPKILVIEGLHPMFDERVRDLLDFSIYLDISNEVKFAWKIQRDMAERGHSLESIKASIEARKPDFDAFIDPQKQYADAVIEVLPTTLIPDDNEGKVLRVRLIMKEGVKYFSPVYLFDEGSTISWIPCGRKLTCSYPGIKFNYEPDSYFDHEVSVLEMDGQFDRLDELIYVESHLSNLSTKFYGEVTQQMLKHADFPGSNNGTGLFQTIVGLKIRDLYEQLIANKATARAEAKA | 2
